According to patent US20250340655A1, “EPHA2-TARGETING ANTIBODIES AND THEIR APPLICATIONS IN CANCER TREATMENT” (TAIPEI MEDICAL UNIVERSITY, priority 2022, published 2025):
Values belong to the molecule of their own block, whether it stands above or below them. Ends that are not written are not given here. BSA = bovine serum albumin carrier conjugated to the peptide

How the values were obtained:
Mia PaCa-2 tumor = Mia PaCa-2 tumor xenograft model (IgG hSD5, gemcitabine); format: in vivo, mouse; settings: Mia PaCa-2 xenograft
Procedure: (§1) The freshly prepared BxPc-3 and Mia PaCa-2 cancer cells were harvested during the log growth phase and resuspended in PBS for tumor implantation. Each NOD/SCID mouse was subcutaneously inoculated with cancer cells (5×10^6 to BxPc-3 and 1×10^7 to Mia PaCa-2) for tumor formation. The tumor size was measured twice weekly, and the volume was calculated as follows: V=0.5lw^2, where l=the length and w=the width. When the tumor size was approximately 100 mm3, animals were divided into groups that received (a) vehicle alone through intravenous injection (i.v.) once weekly (qwk), (b) control human IgG1 at 20 mg/kg through i.v. qwk, (c) and (d) hSD5 IgG1 at 2 or 20 mg/kg through i.v. qwk, (e) and (f) gemcitabine at 20 or 100 mg/kg through i.v. twice weekly (biw), or (g) hSD5 IgG1 at 2 mg/kg through i.v. qwk combined with gemcitabine at 20 mg/kg through i.v. biw. At the end of the experiment, the antitumor effects were quantified by dividing the tumor volumes in the treatment groups by those in the control groups and multiplying them by 100 to represent tumor growth inhibition (TGI; %). The mice were also examined frequently for overt signs of adverse drug-related side effects.
(§2) The pancreatic tissue microarray slide (US Biomax, PA483e) was used to detect and analyze the EphA2 expression of clinical samples. In the xenograft animal model, the excised BxPc-3 and Mia PaCa-2 tumors were fixed in formalin, embedded in paraffin, and sliced for immunohistochemical staining (IHC). Commercial antibodies (Cell signaling, Dako; Agilent Technologies; and Abcam) were used for staining the EphA2 molecule, cell proliferation marker Ki-67, and apoptosis marker cleaved caspase 3. The effects of staining were observed using a Zeiss Axioskop-2 microscope (Carl Zeiss).
(§3) Mia PaCa-2 xenograft mice was also used to determine the inhibitory effect of IgG hSD5 on in vivo tumor growth. Administration of IgG hSD5 (20 mg/kg, iv, qwk, indicated as blue filled inverted triangles) and Gemcitabine (100 mg/kg, iv, biw, indicated as orange filled squares) were used to test the inhibition effect on BxPc-3 tumor growth, n=6, TGI denotes Tumor growth inhibition. (FIG. 8A) Administration of IgG hSD5 (2 mg/kg, iv, qwk, indicated by solid black triangles), Gemcitabine (20 mg/kg, iv, biw, indicated by black open squares), and the experimental group that combined IgG and Gemcitabine treatment simultaneously (indicated by solid red diamonds) were used to teat the growth inhibitory effect of BxPc-3 on the tumor. (FIG. 8B) During treatments, the weight changes of each mouse group were tracked. (FIG. 8C) The expression levels of EphA2, cell proliferation marker Ki67, and apoptosis-related marker cleaved caspase3 in the excised tumor groups were analyzed by IHC staining. (FIG. 8D)

BxPc-3 tumor = BxPc-3 tumor xenograft model (IgG hSD5, gemcitabine); format: in vivo, mouse; settings: BxPc-3 xenograft, iv
Procedure: as §1, §2
as §3, with “Administration” for “Mia PaCa-2 xenograft mice was also used to determine the inhibitory effect of IgG hSD5 on in vivo tumor growth. Administration”, “7A)” for “8A)”, “7B)” for “8B)”, “7C)” for “8C)”, “7D)” for “8D)”

[1] = target: T1, recombinant EphA2 protein (UniProt P29317 24-537, limits assumed); test: biolayer interferometry
T1 construct: Coated on ELISA plates, run on Native-PAGE and used in biolayer interferometry

[2] = target: T2, EphA2pep_P2 (BSA-CGGGGGGSVSSDFEARHV); test: peptide ELISA on BSA-conjugated peptides
T2 peptide: {BSA}-CGGGGGGSVSSDFEARHV
Procedure: (§4) These peptides were synthesized and conjugated with BSA (Kelowna International Scientific). The BSA-conjugated peptides were individually coated on a 96-well microplate at 4° C. overnight. […] Next, an HRP-conjugated anti-HA tag antibody (Cell Signaling Technology) was used to detect bound scFv. Finally, the TMB substrate was added for development, and the reaction was stopped by adding 1 N HCl. Absorbance was measured by determining the OD at 450 nm. […] Blocking with 3% BSA was performed at RT for 1 h. […] After the membrane was washed, the HRP-conjugated anti-HA tag antibody was added, and the reaction was allowed to proceed for 1 h at RT. Lastly, DAB was used to initiate the coloration reaction.
(§5) The two short peptides located on the designed activation site of EphA2 are EphA2pep_P1 and EphA2pep_P2, respectively. The long peptide formed by linking the two short peptides is EphA2pep_PIP2. NCIpep and NC2pep are two irrelevant peptides as the negative control. EphA2 ECD is a recombinant EphA2 extracellular domain protein.

[3] = target: T3, EphA2pep_PIP2 (BSA-CGGGWDLMQNIMNDMPIYMYSVGGGGGGSVSSDFEARHV) (conjugated with BSA (printed BSA-C...)); test: peptide ELISA on BSA-conjugated peptides
T3 construct: also called long peptide
T3 peptide: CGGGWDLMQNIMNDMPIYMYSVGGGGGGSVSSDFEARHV
Procedure: as §4, §5

[4] = target: T4, EphA2pep_P1 (BSA-CGGGWDLMQNIMNDMPIYMYSV) (conjugated with BSA (printed BSA-C...)); test: peptide ELISA on BSA-conjugated peptides
T4 peptide: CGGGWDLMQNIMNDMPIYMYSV
Procedure: as §4, §5

BxPc-3 cells = test: Antibody internalization (endocytosis) assay; format: cell-based, human; settings: BxPc-3, 1 h, 37° C. vs 4° C. (FIG. 6B)
Procedure: BxPc-3 cells were seeded on cover glasses placed in the wells of a 6-well culture plate. The BxPc-3 seeded glass slides were incubated with ephrin A1-Fc (Sino Biological) or IgG hSD5 for 1 h at 37° C. or 4° C. After washing with PBS, the cells were fixed with 100% ice methanol for 10 min. Next, the cells were stained with an FITC-conjugated anti-human Fc antibody and were subsequently mounted with ProLong Diamond Antifade Mountant comprising 4′,6-diamidino-2-phenylindole for nuclear counterstaining (Invitrogen). The cells were imaged using a confocal microscope (Leica Microsystems).

[5] = target: T1, recombinant EphA2 protein; test: ELISA, serially diluted scFv on coated recombinant EphA2
Procedure: The recombinant EphA2 protein (0.5 ug/well) was coated onto the wells of the microtiter plate at 4° C. overnight. The wells were blocked with 5% skim milk, and scFv or phage was then added to the wells at room temperature for 1 h. After the wells were washed with PBST, the bound scFv or phage was then detected and developed using horseradish peroxidase (HRP)-conjugated goat anti-chicken light chain antibodies (Bethyl Laboratories) or HRP-conjugated anti-M13 antibodies (GE Healthcare Life Science). Finally, the substrate 3,5,5-tetramethubezidine dihydrochloride (TMB) was added for signal development. The reaction was stopped by adding 1 N HCl, and absorbance was measured by determining optical density (OD) at 450 nm.
Four representative scFvs were serially diluted to test the percentage of binding to EphA2 molecules. (FIG. 3C) After gene sequencing, we serially diluted the four isolated representative scFvs to test the binding reaction to EphA2.

T1 sequence (P29317 24-537 limits assumed): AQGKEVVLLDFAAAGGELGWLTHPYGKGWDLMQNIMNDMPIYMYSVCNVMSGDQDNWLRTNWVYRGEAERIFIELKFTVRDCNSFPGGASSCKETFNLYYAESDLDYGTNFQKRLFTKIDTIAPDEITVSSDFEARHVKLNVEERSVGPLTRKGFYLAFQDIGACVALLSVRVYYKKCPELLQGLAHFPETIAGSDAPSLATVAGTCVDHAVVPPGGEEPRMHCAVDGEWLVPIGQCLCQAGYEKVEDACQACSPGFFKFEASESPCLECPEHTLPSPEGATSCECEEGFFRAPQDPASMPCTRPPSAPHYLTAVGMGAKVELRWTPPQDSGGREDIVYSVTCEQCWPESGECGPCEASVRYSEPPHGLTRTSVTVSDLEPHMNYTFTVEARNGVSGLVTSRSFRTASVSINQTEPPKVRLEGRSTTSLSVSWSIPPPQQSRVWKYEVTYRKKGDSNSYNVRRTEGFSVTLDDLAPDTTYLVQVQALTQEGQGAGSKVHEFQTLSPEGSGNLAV

Molecule: Nc1ccn([C@@H]2O[C@H](CO)[C@@H](O)C2(F)F)c(=O)n1 [Gemcitabine, reference compound]
TGI (tumor growth inhibition) (Mia PaCa-2 tumor; 20 mg/kg gemcitabine): 38.7%
TGI (tumor growth inhibition) (Mia PaCa-2 tumor; 100 mg/kg): 73.7%
TGI (tumor growth inhibition) (BxPc-3 tumor; 20 mg/kg, biw): 34.6%
TGI (tumor growth inhibition) (BxPc-3 tumor; 100 mg/kg, qwk): 59.8%

B2: ephrin-A1: ligand of EphA2, recombinant, used as a positive control (protein)
chain: DRHTVFWNSSNPKFRNEDYTIHVQLNDYVDIICPHYEDHSVADAAMEQYILYLVEHEEYQLCQPQSKDQVRWQCNRPSAKHGPEKLSEKFQRFTPFTLGKEFKEGHSYYYISKPIHQHEDRCLRLKVTVSGKITHSPQAHDNPQEKRLAADDPEVRVLHSIGHS
modifications: left off: a dimerising Fc or GST
notes: ligand of EphA2, recombinant, used as a positive control
endocytosis after targeting EphA2 (BxPc-3 cells): endocytosed from the cell membrane into the cytoplasm

The next lines start with the values.

Kd [1]: 2.06 nM
binding result [2]: binds
binding result [3]: binds
binding result [4]: binds
B1: Humanized IgG hSD5 (antibody, V domains shown)
VH: QVQLVESGGGLVQPGGSLRLSCAASGFTFSDYGMGWVRQAPGKGLEWVAGISAAGSFTPYGAAVKGRFTISRDNSKNTVYLQMNSLRAEDTAVYYCARIPSGYRAGEIYTWGQGTLVTVSS
VL: LTQPPSVSVSPGQTVRITCSGSSGSYGWYQQKSPGQAPVTLIYDNDKRPSGIPERFSGSSSGSTSTLTISGVQAEDEADYYCGSADSSTYVGMFGGGTKLTVL
notes: also called hSD5 IgG; hSD5 IgG1

EC50 [5]: 1.8 nM
B3: scFv SD5 (scFv)
scFv: LTQPSSVSANLGETVKIPCSGSSGSYGWYQQKSPGSAPVTLIYDNDKRPSDIPSRFFGSTSGSTSTLTITGVQAEDEAVYFCGSADSSTYVGMFGAGTTLTVLGQSSRSSTVTLDESGGGLQTPGGGLSLVCKASGFTFSDYGMGWVRQAPGKGLEFVAGISAAGSFTPYGAAVKGRATISRDNGQSTVRLQLNNLRSEDTGIYYCARIPSGYRAGEIYTWGQGTEVIVSS
notes: also called antibody SD5
